First the molecules themselves.
B1: TPR t1 (parent)
chain: GACCAAUCUGCCCUCAGAGCUCGAGAACAUCUUCGGAUGCAGAGGAGGCAGGCUUCGGUGGCGCGAUAGCGCCAACGUCCUCAACCUCCAAUGCAUCCCACCACAUGAUGAUGCCUGAAGAGCCUUGGUUUUUUG

Variants of B1 are the subject of the data set. Kind of data set: polymerase ribozyme fitness, log enrichment relative to wild type (log ratio); higher = more active; in vitro selection for triplet polymerase activity. An outline of the steps:
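Input and output libraries were sequenced on Illumina after a single in vitro selection round, run in triplicate on PCR-built, transcribed mutant libraries of each subunit of a heterodimeric triplet polymerase ribozyme. Selection annealed libraries to a biotinylated primer, the partner subunit and triplets, incubated them frozen at −7 °C, then gel-excised extended constructs for streptavidin-bead capture and RT-PCR. Genotypes with ≥10 input reads and ≥1 read per output were kept. Fitness is the logarithm, taken in base 2, of genotype enrichment divided by wild-type enrichment, using inverse-variance-weighted replicate averages.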
Turning to G61A C88G C104U C123G, the “polymerase ribozyme fitness (log ratio)” value amounted to 1.29.
Under G61A C88G G120A A121C G135U stands -0.364; under G60C C123G, 1.61.
As for G61U C124A, the “polymerase ribozyme fitness (log ratio)” value worked out at 1.54.
The result for G61U A103G reads -4.75.
The result for G60U C82G reads -1.12.
Under G61A C85G stands 0.134; under G61U C86G, -1.55; under G60C U106G, -3.41.
In the case of G60C U106C, the “polymerase ribozyme fitness (log ratio)” value is -0.702.
G61C C86A: the “polymerase ribozyme fitness (log ratio)” value was -2.15.
On to G61U C94U U112A C115G, for which the “polymerase ribozyme fitness (log ratio)” value was -0.199.
Turning to G61U C123U, the “polymerase ribozyme fitness (log ratio)” value stood at 1.8.
With G61A C104A G110A, the “polymerase ribozyme fitness (log ratio)” value is -3.83.
For the variant G61A C70G, the “polymerase ribozyme fitness (log ratio)” value was -4.02.
The result for G61A G77A C89U U126A reads -2.77.
The result for G60U U130C reads 0.326.
Under G61A G113C G128U stands -4.09; under G61C A84U, -1.95; under G61A G113A, -0.325.
As to G60U C115A U125G, the “polymerase ribozyme fitness (log ratio)” value was 0.39.
For G60U U78C, the “polymerase ribozyme fitness (log ratio)” value was -0.915.
The result for G61A U106G C114U reads -3.24; that for G61C A74U, -4.43.
Regarding G60U U87A, the “polymerase ribozyme fitness (log ratio)” value came out at 0.377.
Regarding G60U A74U G110U G127A, the “polymerase ribozyme fitness (log ratio)” value is -4.43.
On to G61C G117A, for which the “polymerase ribozyme fitness (log ratio)” value is -2.2.
The result for G61U C70G reads -4.08; that for G60U C79G C114U, -4.12; that for G60C U112G U116C, -2.47.
The result for G61A C80A reads -3.47; that for G61U G107U, -4.51; that for G60U U87G U129G, -0.951.
G60C C115A G120U: the “polymerase ribozyme fitness (log ratio)” value was -0.0517.
The result for G61U C114A reads -1.12; that for G61C C114A, -2.18; that for G61A U116G A121U, 0.807.
Under G61C C88U stands -1.5.
For G61U A83C C89G, the “polymerase ribozyme fitness (log ratio)” value was -1.83.
The result for G60U A118C reads -2.43.
Under G60U A118U stands -0.552.
In the case of G60C G77U, the “polymerase ribozyme fitness (log ratio)” value was -0.19.
The result for G61A A111U G128C U133G reads -4.57; that for G61A U92C, -0.505; that for G61A C97A, -3.78.
As for G60U C101A C123G, the “polymerase ribozyme fitness (log ratio)” value came out at 0.75.
In the case of G61A C72A, the “polymerase ribozyme fitness (log ratio)” value is -0.462.
In the case of G60C U130A, the “polymerase ribozyme fitness (log ratio)” value was 0.137.
Turning to G61A C86U U116A G117A, the “polymerase ribozyme fitness (log ratio)” value was -2.15.
The result for G61U A66C C114A reads -2.88.
For G61C U78C U133A, the “polymerase ribozyme fitness (log ratio)” value was -3.51.
Under G61A A111U U116C stands -4.5; under G61A G71U, -1.6; under G61A A111C, -0.072.
As for G61A A121G, the “polymerase ribozyme fitness (log ratio)” value is 1.21.
On to G61A C88U, for which the “polymerase ribozyme fitness (log ratio)” value was -0.64.
On to G60U A75U U87C, for which the “polymerase ribozyme fitness (log ratio)” value was 0.354.
Under G61C C89A A121G stands -2.4.
Under G61C G120A stands 0.0588; under G60U C94A, -0.596.
The result for G61A A75U U96G A121G U129C G135U reads 0.938.
With G60C C94A C102U U106A, the “polymerase ribozyme fitness (log ratio)” value is -6.72.
The result for G61U A66C reads -3.18; that for G61A C101A U116A G128C, -6.04.
For G61A C115A U129A U132A, the “polymerase ribozyme fitness (log ratio)” value was -3.87.
Under G61A C64U stands -1.86; under G61U A75G C82G A100C G113U, -5.51; under G60C G61C, -1.72.
Under G60C U131A stands -1.69.
Under G61U C79A C104U stands -0.851; under G61C C123A, -0.578.
On to G61C U78G, for which the “polymerase ribozyme fitness (log ratio)” value was -4.7.
With G61C U78A G93A U96A, the “polymerase ribozyme fitness (log ratio)” value is -1.93.
As to G60U U112G U116C, the “polymerase ribozyme fitness (log ratio)” value was -1.99.
The result for G61A C124G reads 1.77; that for G61C U106C, -2.89.
With G60U U112A, the “polymerase ribozyme fitness (log ratio)” value stood at 1.6.
The result for G61C C88U A90C G110U reads -5.87.
Consider G61U C99A C115A C124A, for which the “polymerase ribozyme fitness (log ratio)” value was -4.46.
The result for G61A U112C U129A reads 1.39; that for G60C C102A, -3.75; that for G60U A68G, -3.02.
On to G61C G128U, for which the “polymerase ribozyme fitness (log ratio)” value was -3.46.
Under G61C G128A stands -3.41; under G61C C79A A95G G127A, -3.63.
The result for G60C G110C reads -4.39; that for G61A U87C, -0.201.
Under G60U C85A A103U A111C stands -4.74.
For G61A C88G C98G C123G, the “polymerase ribozyme fitness (log ratio)” value is -6.3.
The result for G61A G120A U133A reads 0.274; that for G60U C104A, -1.7.
Under G60U G120A C124A stands 1.48.
G61A C102U: the “polymerase ribozyme fitness (log ratio)” value is -1.04.
Under G61A G107A stands -3.6; under G60U G110U, -0.553.
As to G60U G110A, the “polymerase ribozyme fitness (log ratio)” value is -1.
As to G61A A100C, the “polymerase ribozyme fitness (log ratio)” value is -0.823.
For the variant G60C U129C, the “polymerase ribozyme fitness (log ratio)” value is -0.277.
As to G60U C101A, the “polymerase ribozyme fitness (log ratio)” value was -0.256.
The result for G61A C88U A100U G120A reads -0.447.
Under G61A U78G C123A U133A stands 0.482; under G61C C79U G117A G128A, -4.76.
The result for G61C C101G U112C reads -2.46; that for G60C G61A C101A C123A U129A, -4.67; that for G61A A83G G113A U130G, -1.85.
Regarding G61U A121U, the “polymerase ribozyme fitness (log ratio)” value worked out at 1.48.
Under G61C A83U G113C G120U U132A stands -4.78; under G60C C99U, -4.01.
Regarding G61A U129G U130A, the “polymerase ribozyme fitness (log ratio)” value was -2.53.
The result for G61U C80A reads -2.59; that for G61A G77A A95U, -1.47; that for G60U G69A, -4.86.
For the variant G60C U109G G120A, the “polymerase ribozyme fitness (log ratio)” value is -5.9.
Under G61A A108U G120U stands -6.8.
Take G61A C98U G120U: the “polymerase ribozyme fitness (log ratio)” value was -0.011.
For the variant G61C A111C, the “polymerase ribozyme fitness (log ratio)” value is -1.98.
Consider G61C A111G, for which the “polymerase ribozyme fitness (log ratio)” value is -0.983.
Consider G61C U87A, for which the “polymerase ribozyme fitness (log ratio)” value was -1.83.
For G61U C79A, the “polymerase ribozyme fitness (log ratio)” value is -0.952.
Under G61A C64U C72U A91U stands -1.32; under G60U U78A C89G, -1.87.
Under G61C C89A stands -3.5; under G60U C76U, -2.74; under G61C U129A, -3.33.
Under G60C G117C A121C stands -4.85; under G60U G63A C97A C99A A111U G122U U130A, -6.95; under G61C G122A, -2.5.
Consider G61A C79A, for which the “polymerase ribozyme fitness (log ratio)” value was -2.09.
As for G60U G93U A108G G120U, the “polymerase ribozyme fitness (log ratio)” value was -3.22.
Take G60C C124U G135A: the “polymerase ribozyme fitness (log ratio)” value worked out at 2.05.
Take G61U C82G C94U: the “polymerase ribozyme fitness (log ratio)” value was -0.714.
Under G61C G107A stands -6.66; under G60U A83C G117A, -2.26; under G60U C85G C102A, -2.17.
For G60C C104A, the “polymerase ribozyme fitness (log ratio)” value is -2.18.
For the variant G61A C64U U81G G120U, the “polymerase ribozyme fitness (log ratio)” value is -7.13.
Take G61U A91G G93A A105U G117U: the “polymerase ribozyme fitness (log ratio)” value is -6.5.
G60C G107A: the “polymerase ribozyme fitness (log ratio)” value was -5.47.
Under G60C G107U stands -4.16; under G60U G117A, -0.487.
Under G60U G117C stands -3.52.
Under G61U C97A A100C stands -3.32.
Turning to G60C U96A C101A A119U, the “polymerase ribozyme fitness (log ratio)” value was -4.66.
The result for G60U A83C reads 0.15; that for G60U A83U, -0.0168; that for G60C G93U C114A, -2.51.
G61C A66U: the “polymerase ribozyme fitness (log ratio)” value was -0.911.
The result for G61A G128C reads -1.93; that for G60U C89G U96G U129A, -3.9; that for G61A C104A, -1.95.
Under G61C A66C G135U stands -4.47.
With G61C C64G A111C, the “polymerase ribozyme fitness (log ratio)” value is -6.11.
Take G61U C94G: the “polymerase ribozyme fitness (log ratio)” value is -0.934.
Under G61A G69C U116C stands -4.59.
For the variant G61A C73A G127A, the “polymerase ribozyme fitness (log ratio)” value was -1.74.
The result for G60U G61C reads -1.45.
Under G61C U87A C102A stands -5.28; under G61A G69A, -4.21; under G61C C85U, -1.81.
Under G61A C73U A91C C101A stands -2.91; under G61A U67A, -6.59.
As for G60U C102U, the “polymerase ribozyme fitness (log ratio)” value was -1.09.
The result for G61A C98U reads -0.37; that for G61A C98A, -4.75; that for G60U A100C, -1.26.
Take G60U C62G A83C: the “polymerase ribozyme fitness (log ratio)” value was -0.657.
The result for G61A C88U A105G reads -2.9.

The record behind these values is the RNAGym collection of RNA variant scans (doi:10.1073/pnas.2313332121).
